Source: publication PMC12209456, “Serine/threonine/tyrosine kinase 1 drives pancreatic carcinogenesis via GSK3β sequestration-mediated Wnt/β-catenin pathway hyperactivation” (Signal Transduction and Targeted Therapy, 2025)

Legend:
[1] = tested on: CyclinD1/Axin2/C-myc; test: Wnt target gene expression (western blot, qRT-PCR); type: cell-based, human; settings: PANC-1 cells, EGF (100 ng/mL) or CQ (100 μM)
Procedure: Whole-cell extracts were prepared with 1% sodium dodecyl sulfate lysis buffer with freshly added 1% proteinase inhibitor cocktail (Biomake, B14001) and 1 mM phenylmethylsulfonyl fluoride (PMSF, MCE, HY-B0496). Western blot was performed as described previously.[20]
Total RNA was extracted from cultured pancreatic cancer cells using Trizol reagent (Invitrogen) according to the manufacturer’s protocol. qRT-PCR was performed as previously described.^3 The mRNA expression level for each sample was normalized to the expression of GAPDH using the 2 ^-ΔΔct method^4 with three biological replicates of comparative qRT-PCR. The following primer sequences were used for qRT-PCR: GAPDH, (forward) 5′- […] -3′ and (reverse) 5′- […] -3′; CyclinD1, (forward) 5′- […] -3′ and (reverse) 5′- […] -3′; C-myc, (forward) 5′- […] -3′ and (reverse) 5′- […] -3′; Axin2, (forward) 5′- […] -3′ and (reverse) 5′- […] -3′; STYK1, (forward) 5′- […] -3′ and (reverse) 5′- […] -3′. Amplification was performed in an ABI Q3 real-time PCR system using a SYBR Green master mix (YEASEN, 11201ES08).

[2] = tested on: β-catenin/TCF4 transcriptional activity; test: 7TGC reporter assay; type: cell-based, human; settings: PANC-1 cells, EGF (100 ng/mL) or CQ (100 μM)
From the text: The PCR products of STYK1, GSK3β, and Axin1 were cloned into pcDNA3.1-3×HA, pCMV-3×Flag (Sigma, E4401), and pCMV-mCherry (constructed by our lab) respectively. […] To make STYK1, β-catenin, GSK3β, or BLK mutants or truncations, a series of forwarding primers harboring the desired mutations were used in PCRs. The nucleotide sequences of all constructs were confirmed by DNA sequencing. […] DNA and interference RNA were transfected with Lipofectamine 3000 (Invitrogen, L3000015) according to the manufacturer’s instructions. shRNA for STYK1 #1: 5ʹ- [sequence] -3ʹ. #2: 5ʹ- [sequence] -3ʹ. siRNA for STYK1 was 5ʹ- [sequence] -3ʹ. siRNA for β-catenin was 5ʹ- [sequence] -3ʹ. siRNA for HRS was 5ʹ- [sequence] -3ʹ, siRNA for VPS24 was 5ʹ- [sequence] -3ʹ.

[3] = tested on: GSK3β sequestration in Rab5+ endosomes, PANC-1 cells; test: Wnt-induced GSK3β within Rab5+ endosomes, PANC-1 cells; type: cell-based, human; settings: Rab5 Q79L, n = 10
Procedure: (§1) PANC-1, AsPC-1, HEK293T, or HeLa cells were ﬁxed with 4% formaldehyde for 10-15 min and then blocked with 3% BSA and 0.1% Triton X-100 in PBS for 20 min at room temperature. Immunostaining was performed using the indicated antibody. Nuclei were counterstained with DAPI. Images were taken with a Leica Inverted Confocal SP8 (Leica, Germany).

[4] = tested on: GSK3β in MVBs; test: Co-localization of GSK3β with Rab7 and CD63 (immunofluorescence); type: cell-based
Procedure: as §1

| Molecule | STYK1-mediated alteration of the Wnt/β-catenin target genes C-myc, Axin2 [1] | Wnt signaling in the 7TGC system [2] | amount of GSK3β within Rab5+ endosomes [3] | separation of GSK3β into MVBs ([4]; Wnt activation, discussion summary) | co-localization of GSK3β with Rab7 and CD63 ([4]; under Wnt3a treatment) |
| --- | --- | --- | --- | --- | --- |
| EGF: EGF (100 ng/mL) treatment (protein, UniProt P01133 23-1207, looked up, Pro-epidermal growth factor, EGF (100 ng/mL) treatment) Pro-epidermal growth factor: PQHWSCPEGTLAGNGNSTCVGPAPFLIFSHGNSIFRIDTEGTNYEQLVVDAGVSVIMDFHYNEKRIYWVDLERQLLQRVFLNGSRQERVCNIEKNVSGMAINWINEEVIWSNQQEGIITVTDMKGNNSHILLSALKYPANVAVDPVERFIFWSSEVAGSLYRADLDGVGVKALLETSEKITAVSLDVLDKRLFWIQYNREGSNSLICSCDYDGGSVHISKHPTQHNLFAMSLFGDRIFYSTWKMKTIWIANKHTGKDMVRINLHSSFVPLGELKVVHPLAQPKAEDDTWEPEQKLCKLRKGNCSSTVCGQDLQSHLCMCAEGYALSRDRKYCEDVNECAFWNHGCTLGCKNTPGSYYCTCPVGFVLLPDGKRCHQLVSCPRNVSECSHDCVLTSEGPLCFCPEGSVLERDGKTCSGCSSPDNGGCSQLCVPLSPVSWECDCFPGYDLQLDEKSCAASGPQPFLLFANSQDIRHMHFDGTDYGTLLSQQMGMVYALDHDPVENKIYFAHTALKWIERANMDGSQRERLIEEGVDVPEGLAVDWIGRRFYWTDRGKSLIGRSDLNGKRSKIITKENISQPRGIAVHPMAKRLFWTDTGINPRIESSSLQGLGRLVIASSDLIWPSGITIDFLTDKLYWCDAKQSVIEMANLDGSKRRRLTQNDVGHPFAVAVFEDYVWFSDWAMPSVMRVNKRTGKDRVRLQGSMLKPSSLVVVHPLAKPGADPCLYQNGGCEHICKKRLGTAWCSCREGFMKASDGKTCLALDGHQLLAGGEVDLKNQVTPLDILSKTRVSEDNITESQHMLVAEIMVSDQDDCAPVGCSMYARCISEGEDATCQCLKGFAGDGKLCSDIDECEMGVPVCPPASSKCINTEGGYVCRCSEGYQGDGIHCLDIDECQLGEHSCGENASCTNTEGGYTCMCAGRLSEPGLICPDSTPPPHLREDDHHYSVRNSDSECPLSHDGYCLHDGVCMYIEALDKYACNCVVGYIGERCQYRDLKWWELRHAGHGQQQKVIVVAVCVVVLVMLLLLSLWGAHYYRTQKLLSKNPKNPYEESSRDVRSRRPADTEDGMSSCPQPWFVVIKEHQDLKNGGQPVAGEDGQAADGSMQPTSWRQEPQLCGMGTEQGCWIPVSSDKGSCPQVMERSFHMPSYGTQTLEGGVEKPHSLLSANPLWQQRALDPPHQMELTQ | down-regulated STYK1-mediated alteration of the Wnt/β-catenin target genes C-myc, Axin2 | decreased Wnt signaling in the 7TGC system |  |  |  |
| Wnt3a: Wnt3a, R&D systems (5036-WN) (protein, UniProt P56704 19-352, looked up) Protein Wnt-3a: SYPIWWSLAVGPQYSSLGSQPILCASIPGLVPKQLRFCRNYVEIMPSVAEGIKIGIQECQHQFRGRRWNCTTVHDSLAIFGPVLDKATRESAFVHAIASAGVAFAVTRSCAEGTAAICGCSSRHQGSPGKGWKWGGCSEDIEFGGMVSREFADARENRPDARSAMNRHNNEAGRQAIASHMHLKCKCHGLSGSCEVKTCWWSQPDFRAIGDFLKDKYDSASEMVVEKHRESRGWVETLRPRYTYFKVPTERDLVYYEASPNFCEPNPETGSFGTRDRTCNVSSHGIDGCDLLCCGRGHNARAERRREKCRCVFHWCCYVSCQECTRVYDVHTCK |  |  | remarkably increased the amount of GSK3β within Rab5^+ endosomes | supports the separation of GSK3β into MVBs | detectable co-localization with Rab7 and CD63 |
